In ChEMBL document CHEMBL1212772:

Experiments:
[1] = substrate: C[C@@H](O)[C@H]1C(=O)N2C(C(=O)O)=C(S[C@@H]3CN[C@H](CNS(N)(=O)=O)C3)[C@H](C)[C@H]12; test: (§1) Kcat/Km ratio of Serratia marcescens SME-3
[2] = substrate: C[C@@H](O)[C@H]1C(=O)N2C(C(=O)O)=C(S[C@@H]3CN[C@H](C(=O)N(C)C)C3)[C@H](C)[C@H]12; test: as §1
[3] = substrate: C[C@@H](O)[C@H]1C(=O)N2C(C(=O)O)=C(SCCNC=N)C[C@H]12; test: as §1
[4] = substrate: C[C@@H](O)[C@H]1C(=O)N2C(C(=O)O)=C(S[C@@H]3CN[C@H](CNS(N)(=O)=O)C3)[C@H](C)[C@H]12; test: (§2) Activity of Serratia marcescens SME-3
[5] = substrate: C[C@@H](O)[C@H]1C(=O)N2C(C(=O)O)=C(S[C@@H]3CN[C@H](C(=O)N(C)C)C3)[C@H](C)[C@H]12; test: as §2
[6] = substrate: C[C@@H](O)[C@H]1C(=O)N2C(C(=O)O)=C(SCCNC=N)C[C@H]12; test: as §2
[7] = substrate: O=C(Cc1cccs1)N[C@@H]1C(=O)N2C(C(=O)[O-])=C(C[n+]3ccccc3)CS[C@H]12; test: (§3) Kcat/Km ratio of Pseudomonas aeruginosa IMP-1
[8] = substrate: C[C@@H](O)[C@H]1C(=O)N2C(C(=O)O)=C(S[C@@H]3CN[C@H](CNS(N)(=O)=O)C3)[C@H](C)[C@H]12; test: as §3
[9] = substrate: CC1(C)S[C@@H]2[C@H](NC(=O)Cc3ccccc3)C(=O)N2[C@H]1C(=O)O; test: as §3
[10] = substrate: C[C@@H](O)[C@H]1C(=O)N2C(C(=O)O)=C(S[C@@H]3CN[C@H](C(=O)N(C)C)C3)[C@H](C)[C@H]12; test: as §3
[11] = substrate: CC(C)(O/N=C(\C(=O)N[C@@H]1C(=O)N2C(C(=O)[O-])=C(C[n+]3ccccc3)CS[C@H]12)c1csc(N)n1)C(=O)O; test: as §3
[12] = substrate: C[C@@H](O)[C@H]1C(=O)N2C(C(=O)O)=C(SCCNC=N)C[C@H]12; test: as §3
[13] = substrate: O=C(Cc1cccs1)N[C@@H]1C(=O)N2C(C(=O)[O-])=C(C[n+]3ccccc3)CS[C@H]12; test: (§4) Activity of Pseudomonas aeruginosa IMP-1
[14] = substrate: C[C@@H](O)[C@H]1C(=O)N2C(C(=O)O)=C(S[C@@H]3CN[C@H](CNS(N)(=O)=O)C3)[C@H](C)[C@H]12; test: as §4
[15] = substrate: CC1(C)S[C@@H]2[C@H](NC(=O)Cc3ccccc3)C(=O)N2[C@H]1C(=O)O; test: as §4
[16] = substrate: C[C@@H](O)[C@H]1C(=O)N2C(C(=O)O)=C(S[C@@H]3CN[C@H](C(=O)N(C)C)C3)[C@H](C)[C@H]12; test: as §4
[17] = substrate: CC(C)(O/N=C(\C(=O)N[C@@H]1C(=O)N2C(C(=O)[O-])=C(C[n+]3ccccc3)CS[C@H]12)c1csc(N)n1)C(=O)O; test: as §4
[18] = substrate: C[C@@H](O)[C@H]1C(=O)N2C(C(=O)O)=C(SCCNC=N)C[C@H]12; test: as §4
[19] = substrate: CC(C)(O/N=C(\C(=O)N[C@@H]1C(=O)N2C(C(=O)[O-])=C(C[n+]3ccccc3)CS[C@H]12)c1csc(N)n1)C(=O)O; test: Kcat/Km ratio of Pseudomonas aeruginosa SPM-1
[20] = substrate: O=C(Cc1cccs1)N[C@@H]1C(=O)N2C(C(=O)[O-])=C(C[n+]3ccccc3)CS[C@H]12; test: (§5) Activity of Acinetobacter baumannii OXA-23
[21] = substrate: C[C@@H](O)[C@H]1C(=O)N2C(C(=O)O)=C(S[C@@H]3CN[C@H](CNS(N)(=O)=O)C3)[C@H](C)[C@H]12; test: as §5
[22] = substrate: CC1(C)S[C@@H]2[C@H](NC(=O)Cc3ccccc3)C(=O)N2[C@H]1C(=O)O; test: as §5
[23] = substrate: C[C@@H](O)[C@H]1C(=O)N2C(C(=O)O)=C(S[C@@H]3CN[C@H](C(=O)N(C)C)C3)[C@H](C)[C@H]12; test: as §5
[24] = substrate: CC(C)(O/N=C(\C(=O)N[C@@H]1C(=O)N2C(C(=O)[O-])=C(C[n+]3ccccc3)CS[C@H]12)c1csc(N)n1)C(=O)O; test: as §5
[25] = substrate: C[C@@H](O)[C@H]1C(=O)N2C(C(=O)O)=C(SCCNC=N)C[C@H]12; test: as §5
[26] = substrate: CC(C)(O/N=C(\C(=O)N[C@@H]1C(=O)N2C(C(=O)[O-])=C(C[n+]3ccccc3)CS[C@H]12)c1csc(N)n1)C(=O)O; test: Activity of Pseudomonas aeruginosa SPM-1
[27] = target: Pseudomonas aeruginosa; test: Activity of Pseudomonas aeruginosa SPM-1
[28] = substrate: O=C(Cc1cccs1)N[C@@H]1C(=O)N2C(C(=O)[O-])=C(C[n+]3ccccc3)CS[C@H]12; conditions: Acinetobacter baumannii
Description: (§6) Kcat/Km ratio of Acinetobacter baumannii OXA-23

[29] = substrate: C[C@@H](O)[C@H]1C(=O)N2C(C(=O)O)=C(S[C@@H]3CN[C@H](CNS(N)(=O)=O)C3)[C@H](C)[C@H]12; conditions: Acinetobacter baumannii
Description: as §6

[30] = substrate: CC1(C)S[C@@H]2[C@H](NC(=O)Cc3ccccc3)C(=O)N2[C@H]1C(=O)O; conditions: Acinetobacter baumannii
Description: as §6

[31] = substrate: C[C@@H](O)[C@H]1C(=O)N2C(C(=O)O)=C(S[C@@H]3CN[C@H](C(=O)N(C)C)C3)[C@H](C)[C@H]12; conditions: Acinetobacter baumannii
Description: as §6

[32] = substrate: C[C@@H](O)[C@H]1C(=O)N2C(C(=O)O)=C(SCCNC=N)C[C@H]12; conditions: Acinetobacter baumannii
Description: as §6

[33] = target: Pseudomonas aeruginosa; test: Kcat/Km ratio of Pseudomonas aeruginosa SPM-1

B1: Carbapenem-hydrolyzing beta-lactamase SME-3 (Serratia marcescens), Q6PRG8 (protein)
chain: MSNKVNFKTASFLFSVCLALSAFNAHANKSDAAAKQIKKLEEDFDGRIGVFAIDTGSGNTFGYRSDERFPLCSSFKGFLAAAVLERVQQKKLDINQKVKYESRDLEYYSPITTKYKGSGMTLGDMASAALQYSDNGATNIIMERFLGGPEGMTKFMRSIGDNEFRLDRWELELNTAIPGDKRDTSTPKAVANSLNKLALGNVLNAKVKAIYQNWLKGNTTGDARIRASVPADWVVGDKTGSCGAYGTANDYAVIWPKNRAPLIVSIYTTRKSKDDKHSDKTIAEASRIAIQAID
Question: For B1, which kcat/Km [1] is on record?
Answer: 300000 M⁻¹ s⁻¹

Question: And the kcat/Km [2]?
Answer: 550000 M⁻¹ s⁻¹

Question: What about the kcat/Km [3] of the same protein?
Answer: 2.5e+06 M⁻¹ s⁻¹

Question: And the Km [4]?
Answer: 8.2 µM

Question: What about the kcat [4] of the same protein?
Answer: 2.5 s⁻¹

Question: And the Km [5]?
Answer: 5.8 µM

Question: What about the kcat [5] of the same protein?
Answer: 3.2 s⁻¹

Question: What about the Km [6] of the same protein?
Answer: 150 µM

Question: What about the kcat [6] of the same protein?
Answer: 370 s⁻¹

B2: Beta-lactamase IMP-1 (Pseudomonas aeruginosa), Q8G9Q0 (protein)
chain: MNSPKSRALLGFMGAFCLLLVAGAPLSAKSSDHVDLPYNLTATKIDSDVFVVTDRDFYSSNVLVAKMLDGTVVIVSSPFENLGTQTLMDWVAKTMKPKKVVAINTHFHLDGTGGNEIYKKMGAETWSSDLTKQLRLEENKKDRIKAAEFYKNEDLKRRILSSHPVPADNVFDLKQGKVFSFSNELVEVSFPGPAHSPDNVVVYFPKKKLLFGGCMIKPKELGYLGDANVKAWPDSARRLKKFDAKIVIPGHGEWGGPEMVNKTIKVAEKAVGEMRL
Question: What does the source list for B2?
Answer: kcat/Km [7]: 1.3e+07 M⁻¹ s⁻¹; kcat/Km [8]: 3.7e+06 M⁻¹ s⁻¹; kcat/Km [9]: 2.5e+06 M⁻¹ s⁻¹; kcat/Km [10]: 4e+06 M⁻¹ s⁻¹; kcat/Km [11]: 740000 M⁻¹ s⁻¹; kcat/Km [12]: 5.8e+06 M⁻¹ s⁻¹; Km [13]: 21 µM; kcat [13]: 270 s⁻¹; Km [14]: 30 µM; kcat [14]: 110 s⁻¹; Km [15]: 550 µM; kcat [15]: 1400 s⁻¹; Km [16]: 6.5 µM; kcat [16]: 26 s⁻¹; Km [17]: 50 µM; kcat [17]: 37 s⁻¹; Km [18]: 33 µM; kcat [18]: 190 s⁻¹

B3: Beta-lactamase OXA-23 (Acinetobacter baumannii), Q9L4P2 (protein)
chain: MNKYFTCYVVASLFLSGCTVQHNLINETPSQIVQGHNQVIHQYFDEKNTSGVLVIQTDKKINLYGNALSRANTEYVPASTFKMLNALIGLENQKTDINEIFKWKGEKRSFTAWEKDMTLGEAMKLSAVPVYQELARRIGLDLMQKEVKRIGFGNAEIGQQVDNFWLVGPLKVTPIQEVEFVSQLAHTQLPFSEKVQANVKNMLLLEESNGYKIFGKTGWAMDIKPQVGWLTGWVEQPDGKIVAFALNMEMRSEMPASIRNELLMKSLKQLNII
Question: Which results are given for B3?
Answer: kcat/Km [19]: 640000 M⁻¹ s⁻¹; Km [20]: 1300 µM; kcat [20]: 450 s⁻¹; Km [21]: 1.8 µM; kcat [21]: 0.2 s⁻¹; Km [22]: 13 µM; kcat [22]: 530 s⁻¹; Km [23]: 2.5 µM; kcat [23]: 0.13 s⁻¹; kcat [24]: < 0.0042 s⁻¹; Km [25]: 1.3 µM; kcat [25]: 0.92 s⁻¹; Km [26]: 120 µM; kcat [26]: 77 s⁻¹; Km [27]: 82 µM; kcat [27]: 45 s⁻¹; kcat/Km [28]: 350000 M⁻¹ s⁻¹; kcat/Km [29]: 110000 M⁻¹ s⁻¹; kcat/Km [30]: 4.1e+07 M⁻¹ s⁻¹; kcat/Km [31]: 52000 M⁻¹ s⁻¹; kcat/Km [32]: 50000 M⁻¹ s⁻¹; kcat/Km [33]: 550000 M⁻¹ s⁻¹
